Test system: T1, MBP-SphR (Pseudomonas aeruginosa (strain PAO1?)), ORF:ae0b4f1c
T1 sequence: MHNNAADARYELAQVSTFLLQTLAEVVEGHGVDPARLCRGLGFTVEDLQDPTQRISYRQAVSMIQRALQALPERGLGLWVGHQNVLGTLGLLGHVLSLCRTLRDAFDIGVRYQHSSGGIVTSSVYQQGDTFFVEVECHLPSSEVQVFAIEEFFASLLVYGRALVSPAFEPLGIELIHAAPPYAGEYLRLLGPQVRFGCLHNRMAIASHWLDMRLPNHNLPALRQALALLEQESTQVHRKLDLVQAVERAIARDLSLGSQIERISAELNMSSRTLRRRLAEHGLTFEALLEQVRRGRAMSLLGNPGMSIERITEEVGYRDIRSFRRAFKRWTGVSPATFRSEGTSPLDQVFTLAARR
Test: competition
Settings: 10 mM Tris-HCl pH 7.5, 50 mM KCl, 1 mM DTT, 1 mM EDTA, 3 mM MgCl2, 50 ug/ml BSA, 4% glycerol, 0.05% NP-40, 50 ng/ul poly(dI-dC), 30 C, 30 min

In the case of “GGTTGCCACTGTAGTGCCAGGGTGGTGGAGTCGAGGGGGGCGTAGCGGACAGGAAGGGGGTGAGCGCCGGCCATCCTGCATGGACGGCAAGGCAGGCGGGTAAAAAAAGGCCGCCTGCGT (double strand) [cerN promoter -200 to -81, unlabeled competitor]”, the binding is reported as “binds”.
